Measurements as given in publication doi:10.1101/2025.09.10.675359.

Target: recombinant human CD4 (rCD4) (human, UniProt P01730 26-396)
Assay: BLI

B1: Apt62 (Aptamer 62) (structured_DNA)
DNA: ATCCAGAGTGACGCAGCACCACCACCGTACAATTCGCTTTCTTTTTTCATTACCTACTCTGGCTTTTT
Kd: 536 nM
